Laboratory results from publication PMC10609963, “Targeting Lactate Dehydrogenase-B as a Strategy to Fight Cancer: Identification of Potential Inhibitors by In Silico Analysis and In Vitro Screening” (Pharmaceutics, 2023).
Like-named read-outs stand apart in the source and are kept apart here.

How the values were obtained:
C[C@H](O)C(=O)O = test system: T1, C[C@H](O)C(=O)O; assay: NBT/PMS colorimetric kinetics, Michaelis-Menten fit; assay type: biochemical, Homo sapiens; settings: 1 mM NAD+, no inhibitor (control), pH 9.6, room temperature
T1 construct: commercial recombinant protein (R&D Systems); homotetramer (LDH-1)
Text: (§1) NBT/PMS colorimetric kinetics, Michaelis-Menten fit on Recombinant human LDH-B

[1] = test system: T2, NC(=O)c1ccc[n+]([C@@H]2O[C@H](COP(=O)(O)OP(=O)(O)OC[C@H]3O[C@@H](n4cnc5c(N)ncnc54)[C@H](O)[C@@H]3O)[C@@H](O)[C@H]2O)c1; assay: as above; assay type: biochemical, Homo sapiens; settings: 25 mM sodium lactate, no inhibitor (control), pH 9.6, room temperature, varied: cofactor
T2 construct: commercial recombinant protein (R&D Systems); homotetramer (LDH-1)
Text: as §1

Recombinant human LDH-B [2] = biological target: T3, Recombinant human LDH-B (Homo sapiens, UniProt P07195); assay: NBT/PMS end-point colorimetric assay, 96-well, lactate to pyruvate; assay type: biochemical
T3 construct: gene LDHB; commercial recombinant protein (R&D Systems); homotetramer (LDH-1)

Recombinant human LDH-B [3] = biological target: T3, Recombinant human LDH-B; assay: NBT/PMS colorimetric kinetics, mixed-model inhibition fit; assay type: biochemical
Text: NBT/PMS colorimetric kinetics, mixed-model inhibition fit on Recombinant human LDH-B

T3 sequence (P07195 2-334): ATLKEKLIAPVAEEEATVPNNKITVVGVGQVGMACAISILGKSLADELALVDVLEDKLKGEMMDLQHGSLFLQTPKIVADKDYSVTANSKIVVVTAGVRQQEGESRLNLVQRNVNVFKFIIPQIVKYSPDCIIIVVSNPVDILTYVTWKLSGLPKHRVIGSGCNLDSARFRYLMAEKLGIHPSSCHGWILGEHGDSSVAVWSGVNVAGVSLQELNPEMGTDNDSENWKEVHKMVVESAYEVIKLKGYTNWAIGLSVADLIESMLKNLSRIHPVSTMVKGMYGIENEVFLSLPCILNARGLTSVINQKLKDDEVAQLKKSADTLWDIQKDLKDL

Row | Compound | Km (C[C@H](O)C(=O)O) | Vmax (C[C@H](O)C(=O)O) | Km [1] | Vmax [1] | IC50 (Recombinant human LDH-B [2]) | Ki (Recombinant human LDH-B [3]; read-out: Tucatinib / Lactate) | Ki (Recombinant human LDH-B [3]; read-out: Capmatinib / Lactate)
1 | Recombinant human LDH-B (Homo sapiens) | 18.5 mM | 1050 µM/min | 0.311 mM | 1040 µM/min | – | – | –
2 | Cc1cc(Nc2ncnc3ccc(NC4=NC(C)(C)CO4)cc23)ccc1Oc1ccn2ncnc2c1 [compound 1, Tucatinib] | – | – | – | – | 0.502 mM | 2.96 mM | –
3 | CNC(=O)c1ccc(-c2cnc3ncc(Cc4ccc5ncccc5c4)n3n2)cc1F [compound 2, Capmatinib] | – | – | – | – | 0.512 mM | – | 2.69 mM
